# The MegaScale stability set (Tsuboyama et al. 2023)
# B1: EEHEE_rd4_0003 (parent)
# chain: KKVTINGVEIKFNNPEEAVKFALELAKRLNLRIEFHGDQIKIE
# Variants of: B1
# Assay: folding stability dG (cDNA display proteolysis); higher = more stable
# Settings: PBS, room temperature
row,Variant,folding stability dG
1,KKVTINHVEIKFNNPEEAVKFALELAKRLNLRIEFHGDQIKIE,1.89 kcal/mol
2,KKVTINAVEIKFNNPEEAVKFALELAKRLNLRIEFHGDQIKIE,1.95 kcal/mol
3,KKVTINDVEIKFNNPEEAVKFALELAKRLNLRIEFHGDQIKIE,1.89 kcal/mol
4,VKVTINGVEIKFNNPEEAVKFALELAKRLNLRIEFHGDQIKIE,3.25 kcal/mol
5,RKVTINGVEIKFNNPEEAVKFALELAKRLNLRIEFHGDQIKIE,2.79 kcal/mol
6,NKVTINGVEIKFNNPEEAVKFALELAKRLNLRIEFHGDQIKIE,2.67 kcal/mol
7,PKVTINGVEIKFNNPEEAVKFALELAKRLNLRIEFHGDQIKIE,2.75 kcal/mol
8,DKVTINGVEIKFNNPEEAVKFALELAKRLNLRIEFHGDQIKIE,2.23 kcal/mol
9,MKVTINGVEIKFNNPEEAVKFALELAKRLNLRIEFHGDQIKIE,3.33 kcal/mol
10,QKVTINGVEIKFNNPEEAVKFALELAKRLNLRIEFHGDQIKIE,2.5 kcal/mol
11,FKVTINGVEIKFNNPEEAVKFALELAKRLNLRIEFHGDQIKIE,3.5 kcal/mol
12,YKVTINGVEIKFNNPEEAVKFALELAKRLNLRIEFHGDQIKIE,3.44 kcal/mol
13,EKVTINGVEIKFNNPEEAVKFALELAKRLNLRIEFHGDQIKIE,2.09 kcal/mol
14,TKVTINGVEIKFNNPEEAVKFALELAKRLNLRIEFHGDQIKIE,3.14 kcal/mol
15,HKVTINGVEIKFNNPEEAVKFALELAKRLNLRIEFHGDQIKIE,2.89 kcal/mol
16,SKVTINGVEIKFNNPEEAVKFALELAKRLNLRIEFHGDQIKIE,2.83 kcal/mol
17,GKVTINGVEIKFNNPEEAVKFALELAKRLNLRIEFHGDQIKIE,2.6 kcal/mol
18,LKVTINGVEIKFNNPEEAVKFALELAKRLNLRIEFHGDQIKIE,3.15 kcal/mol
19,IKVTINGVEIKFNNPEEAVKFALELAKRLNLRIEFHGDQIKIE,3.3 kcal/mol
20,AKVTINGVEIKFNNPEEAVKFALELAKRLNLRIEFHGDQIKIE,2.84 kcal/mol

row,Variant,folding stability dG
1,WKVTINGVEIKFNNPEEAVKFALELAKRLNLRIEFHGDQIKIE,3.51 kcal/mol
2,KQVTINGVEIKFNNPEEAVKFALELAKRLNLRIEFHGDQIKIE,2.36 kcal/mol
3,KFVTINGVEIKFNNPEEAVKFALELAKRLNLRIEFHGDQIKIE,2.8 kcal/mol
4,KYVTINGVEIKFNNPEEAVKFALELAKRLNLRIEFHGDQIKIE,2.82 kcal/mol
5,KSVTINGVEIKFNNPEEAVKFALELAKRLNLRIEFHGDQIKIE,2.92 kcal/mol
6,KEVTINGVEIKFNNPEEAVKFALELAKRLNLRIEFHGDQIKIE,2.06 kcal/mol
7,KWVTINGVEIKFNNPEEAVKFALELAKRLNLRIEFHGDQIKIE,2.88 kcal/mol
8,KHVTINGVEIKFNNPEEAVKFALELAKRLNLRIEFHGDQIKIE,2.46 kcal/mol
9,KDVTINGVEIKFNNPEEAVKFALELAKRLNLRIEFHGDQIKIE,1.93 kcal/mol
10,KLVTINGVEIKFNNPEEAVKFALELAKRLNLRIEFHGDQIKIE,2.84 kcal/mol
11,KMVTINGVEIKFNNPEEAVKFALELAKRLNLRIEFHGDQIKIE,2.83 kcal/mol
12,KAVTINGVEIKFNNPEEAVKFALELAKRLNLRIEFHGDQIKIE,2.46 kcal/mol
13,KIVTINGVEIKFNNPEEAVKFALELAKRLNLRIEFHGDQIKIE,3.41 kcal/mol
14,KNVTINGVEIKFNNPEEAVKFALELAKRLNLRIEFHGDQIKIE,2.48 kcal/mol
15,KTVTINGVEIKFNNPEEAVKFALELAKRLNLRIEFHGDQIKIE,3.4 kcal/mol
16,KVVTINGVEIKFNNPEEAVKFALELAKRLNLRIEFHGDQIKIE,3.28 kcal/mol
17,KPVTINGVEIKFNNPEEAVKFALELAKRLNLRIEFHGDQIKIE,2.2 kcal/mol
18,KRVTINGVEIKFNNPEEAVKFALELAKRLNLRIEFHGDQIKIE,2.78 kcal/mol
19,KGVTINGVEIKFNNPEEAVKFALELAKRLNLRIEFHGDQIKIE,2.2 kcal/mol
20,KCVTINGVEIKFNNPEEAVKFALELAKRLNLRIEFHGDQIKIE,3.4 kcal/mol

row,Variant,folding stability dG
1,KKVPINGVEIKFNNPEEAVKFALELAKRLNLRIEFHGDQIKIE,1.76 kcal/mol
2,KKVVINGVEIKFNNPEEAVKFALELAKRLNLRIEFHGDQIKIE,2.94 kcal/mol
3,KKVRINGVEIKFNNPEEAVKFALELAKRLNLRIEFHGDQIKIE,2.18 kcal/mol
4,KKVWINGVEIKFNNPEEAVKFALELAKRLNLRIEFHGDQIKIE,3.01 kcal/mol
5,KKVDINGVEIKFNNPEEAVKFALELAKRLNLRIEFHGDQIKIE,1.7 kcal/mol
6,KKVQINGVEIKFNNPEEAVKFALELAKRLNLRIEFHGDQIKIE,2.17 kcal/mol
7,KKVHINGVEIKFNNPEEAVKFALELAKRLNLRIEFHGDQIKIE,2.26 kcal/mol
8,KKVIINGVEIKFNNPEEAVKFALELAKRLNLRIEFHGDQIKIE,3 kcal/mol
9,KKVYINGVEIKFNNPEEAVKFALELAKRLNLRIEFHGDQIKIE,3.11 kcal/mol
10,KKVFINGVEIKFNNPEEAVKFALELAKRLNLRIEFHGDQIKIE,3.25 kcal/mol
11,KKVMINGVEIKFNNPEEAVKFALELAKRLNLRIEFHGDQIKIE,2.74 kcal/mol
12,KKVKINGVEIKFNNPEEAVKFALELAKRLNLRIEFHGDQIKIE,2.29 kcal/mol
13,KKVNINGVEIKFNNPEEAVKFALELAKRLNLRIEFHGDQIKIE,2.21 kcal/mol
14,KKVCINGVEIKFNNPEEAVKFALELAKRLNLRIEFHGDQIKIE,3.48 kcal/mol
15,KKVEINGVEIKFNNPEEAVKFALELAKRLNLRIEFHGDQIKIE,1.98 kcal/mol
16,KKVAINGVEIKFNNPEEAVKFALELAKRLNLRIEFHGDQIKIE,2.02 kcal/mol
17,KKVLINGVEIKFNNPEEAVKFALELAKRLNLRIEFHGDQIKIE,2.95 kcal/mol
18,KKVGINGVEIKFNNPEEAVKFALELAKRLNLRIEFHGDQIKIE,1.61 kcal/mol
19,KKVSINGVEIKFNNPEEAVKFALELAKRLNLRIEFHGDQIKIE,2.38 kcal/mol
